Reference: the supplement of paper PMC10567573

B1: KRT33B (parent)
chain: PAVDLNQVLNETRNQYEALVETNR
B2: MATN2 (parent)
chain: FIVDILQFLDIGPDVTRVGLLQYG

Variants of: B1
Assay: protein stability index of a GFP-peptide fusion (GPS, HEK-293T) (PSI 1-6); higher = more stable
Conditions: c terminus: a fixed tail appended
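Further: lentivirally expressed fusions sorted by FACS into six bins by GFP to DsRed ratio, PSI derived from sequencing read proportions per bin multiplied by bin number.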

| Variant | protein stability index |
| --- | --- |
| PAVDLNQVLNETRNQYEALVETNF [R24F] | 3 |
| PAVDLNQVLNETRNQYEALVETNA [R24A] | 4 |
| PAVDLNQVLNETRNQYEALVETNH [R24H] | 4.24 |
| PAVDLNQVLNETRNQYEALVETNC [R24C] | 2.43 |
| PAVDLNQVLNETRNQYEALVETNL [R24L] | 2.54 |
| PAVDLNQVLNETRNQYEALVETNK [R24K] | 3.97 |
| PAVDLNQVLNETRNQYEALVETNS [R24S] | 4.15 |
| PAVDLNQVLNETRNQYEALVETNT [R24T] | 3.87 |
| PAVDLNQVLNETRNQYEALVETNG [R24G] | 4.72 |
| PAVDLNQVLNETRNQYEALVETNN [R24N] | 4.16 |
| PAVDLNQVLNETRNQYEALVETNM [R24M] | 2.16 |
| PAVDLNQVLNETRNQYEALVETNV [R24V] | 1.45 |
| PAVDLNQVLNETRNQYEALVETNY [R24Y] | 2.83 |
| PAVDLNQVLNETRNQYEALVETNE [R24E] | 4.13 |
| PAVDLNQVLNETRNQYEALVETND [R24D] | 5.15 |
| PAVDLNQVLNETRNQYEALVETNI [R24I] | 2.59 |
| PAVDLNQVLNETRNQYEALVETNW [R24W] | 3.46 |
| PAVDLNQVLNETRNQYEALVETNP [R24P] | 4.94 |
| PAVDLNQVLNETRNQYEALVETNQ [R24Q] | 4.16 |
| PAVDLNQVLNETRNQYEALYETNR [V20Y] | 4.22 |
| PAVDLNQVLNETRNQYEALVWTNR [E21W] | 2.89 |
| PAVDLNQVLNETRNQYEALVHTNR [E21H] | 4.19 |
| PAVDLNQVLNETRNQYEALVITNR [E21I] | 3.71 |
| PAVDLNQVLNETRNQYEALVTTNR [E21T] | 4.06 |
| PAVDLNQVLNETRNQYEALVPTNR [E21P] | 4.18 |
| PAVDLNQVLNETRNQYEALVRTNR [E21R] | 4.04 |

| Variant | protein stability index |
| --- | --- |
| PAVDLNQVLNETRNQYEALVYTNR [E21Y] | 3.23 |
| PAVDLNQVLNETRNQYEALVFTNR [E21F] | 3.23 |
| PAVDLNQVLNETRNQYEALVLTNR [E21L] | 3.37 |
| PAVDLNQVLNETRNQYEALVCTNR [E21C] | 3.58 |
| PAVDLNQVLNETRNQYEALVATNR [E21A] | 3.85 |
| PAVDLNQVLNETRNQYEALVGTNR [E21G] | 4.22 |
| PAVDLNQVLNETRNQYEALVQTNR [E21Q] | 3.95 |
| PAVDLNQVLNETRNQYEALVSTNR [E21S] | 4.05 |
| PAVDLNQVLNETRNQYEALVNTNR [E21N] | 4.14 |
| PAVDLNQVLNETRNQYEALVDTNR [E21D] | 3.69 |
| PAVDLNQVLNETRNQYEALVMTNR [E21M] | 3.67 |
| PAVDLNQVLNETRNQYEALVKTNR [E21K] | 4.2 |
| PAVDLNQVLNETRNQYEALVVTNR [E21V] | 3.54 |
| PAVDLNQVLNETRNQYEALVETYR [N23Y] | 3.71 |
| PAVDLNQVLNETRNQYEALVETTR [N23T] | 4.46 |
| PAVDLNQVLNETRNQYEALVETDR [N23D] | 5.06 |
| PAVDLNQVLNETRNQYEALVETGR [N23G] | 4.07 |
| PAVDLNQVLNETRNQYEALVETER [N23E] | 4.51 |
| PAVDLNQVLNETRNQYEALVETWR [N23W] | 3.36 |
| PAVDLNQVLNETRNQYEALVETRR [N23R] | 4.31 |
| PAVDLNQVLNETRNQYEALVETCR [N23C] | 4.03 |
| PAVDLNQVLNETRNQYEALVETKR [N23K] | 4.54 |
| PAVDLNQVLNETRNQYEALVETQR [N23Q] | 4.43 |
| PAVDLNQVLNETRNQYEALVETVR [N23V] | 3.27 |
| PAVDLNQVLNETRNQYEALVETLR [N23L] | 3.06 |
| PAVDLNQVLNETRNQYEALVETHR [N23H] | 4.35 |

| Variant | protein stability index |
| --- | --- |
| PAVDLNQVLNETRNQYEALVETAR [N23A] | 4.3 |
| PAVDLNQVLNETRNQYEALVETMR [N23M] | 3.29 |
| PAVDLNQVLNETRNQYEALVETFR [N23F] | 2.58 |
| PAVDLNQVLNETRNQYEALVETPR [N23P] | 4.54 |
| PAVDLNQVLNETRNQYEALVETSR [N23S] | 4.25 |
| PAVDLNQVLNETRNQYEALVETIR [N23I] | 3.24 |
| PAVDLNQVLNETRNQYEALVECNR [T22C] | 3.78 |
| PAVDLNQVLNETRNQYEALVEFNR [T22F] | 3.61 |
| PAVDLNQVLNETRNQYEALVENNR [T22N] | 4.5 |
| PAVDLNQVLNETRNQYEALVEMNR [T22M] | 3.33 |
| PAVDLNQVLNETRNQYEALVESNR [T22S] | 4.43 |
| PAVDLNQVLNETRNQYEALVEENR [T22E] | 4.05 |
| PAVDLNQVLNETRNQYEALVEINR [T22I] | 3.02 |
| PAVDLNQVLNETRNQYEALVEWNR [T22W] | 3.88 |
| PAVDLNQVLNETRNQYEALVEPNR [T22P] | 4.65 |
| PAVDLNQVLNETRNQYEALVEKNR [T22K] | 3.7 |
| PAVDLNQVLNETRNQYEALVEYNR [T22Y] | 4.57 |
| PAVDLNQVLNETRNQYEALVEANR [T22A] | 3.94 |
| PAVDLNQVLNETRNQYEALVEHNR [T22H] | 3.98 |
| PAVDLNQVLNETRNQYEALVEDNR [T22D] | 4.8 |
| PAVDLNQVLNETRNQYEALVERNR [T22R] | 4.02 |
| PAVDLNQVLNETRNQYEALVELNR [T22L] | 2.23 |
| PAVDLNQVLNETRNQYEALVEVNR [T22V] | 1.57 |
| PAVDLNQVLNETRNQYEALVEQNR [T22Q] | 3.94 |
| PAVDLNQVLNETRNQYEALVEGNR [T22G] | 4.73 |

Variants of: B2
Assay: as above
Conditions: c terminus: a fixed tail appended

| Variant | protein stability index |
| --- | --- |
| QIVDILQFLDIGPDVTRVGLLQYG [F1Q] | 2.03 |
| EIVDILQFLDIGPDVTRVGLLQYG [F1E] | 2.04 |
| AIVDILQFLDIGPDVTRVGLLQYG [F1A] | 2.61 |
| PIVDILQFLDIGPDVTRVGLLQYG [F1P] | 1.15 |
| YIVDILQFLDIGPDVTRVGLLQYG [F1Y] | 2.36 |
| WIVDILQFLDIGPDVTRVGLLQYG [F1W] | 2.01 |
| VIVDILQFLDIGPDVTRVGLLQYG [F1V] | 1.05 |
| KIVDILQFLDIGPDVTRVGLLQYG [F1K] | 2.46 |
| NIVDILQFLDIGPDVTRVGLLQYG [F1N] | 2.54 |
| FIVDILQFLLIGPDVTRVGLLQYG [D10L] | 2.62 |
| FIVDILQFLTIGPDVTRVGLLQYG [D10T] | 3.42 |
| FIVDILQFLEIGPDVTRVGLLQYG [D10E] | 3.48 |
| FIVDILQFLRIGPDVTRVGLLQYG [D10R] | 3.54 |
| FIVDILQFLWIGPDVTRVGLLQYG [D10W] | 2.66 |
| FIVDQLQFLDIGPDVTRVGLLQYG [I5Q] | 1.81 |
| FIVDNLQFLDIGPDVTRVGLLQYG [I5N] | 2.12 |
| FIVDELQFLDIGPDVTRVGLLQYG [I5E] | 3.96 |
